Assay results reported in the NTF2 design screens of Basanta et al. (2020).

Assay: protease stability score; higher = more stable; yeast display proteolysis, trypsin and chymotrypsin;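 also: relative to predicted unfolded state with 0 unfolded-like and 1 meaning tenfold more protease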

Sequence | protease stability score
EEEREIHQRHWEERLRAHRTGDEETLERQADPDVRIDFNGVELHGREVAVRFLLEMRLHDVDWRRIHTFDGRVDVDVIVDGEYNGRRYRSTFTLVIIKVNGQWLVHSMEFK | 0.244
EEERERAKDVFELLWDIEKTGDEDTFTKLADPNVRTHVGDKHFHGRELVAKWLVDVLRELRVHDIEIKSETVINGRNIVDGVLDGHINGRTVKMTTEILILVINGRIREIDIRIL | 0.825
EEERETDHRLTEKLRRIIRTGDEEEWSKLVDPNTRVIYGDKQDHGWEAWVRILKDLGAKHIDIEHVDIVNGRVEIHSHLTIGDKHVIIHHRIVHINGKLTEIYIEIHHK | 0.694
EEERKEVKFAFDIWSELFLTGDEEDIHHLADPDVRLDINGKNIHGMELIHKIILHDILEWRLEVRVKHIEVQGDKAEIQMELKFRYNGREKHYKFRIIYKKFDGQWRYESIHMR | 1.71
EEERRDAEIALTVIEHHWETGDEKDLDEMLDPDVRVIINGQRYHGREWLSRFREDLGATYHDVHVDDIRIYDGRVEMDFHVRGKVGDKERDTRVRIFMIKFDGRWVVEQITLE | 1.95
EEESKVASDIIELHMRFLLTGNWEMFLRLADPHVRIETEDHRDHGRDWYEKLFRHIRSHVEDMRIKHVELQGDKLHAHGSVRLLIVDGDKYIEVEVDFRFIFDKVNGKWILSSIHLK | 2.29
EEHHEITKDLIELLERTMKTGDEDILRKMADPHTKVEQGDKRIIGRDEFQEEWVEWMRRVDHAEVRLTDFREFPNHLELHGTLDVNINGRDIRIEIQIIVSKFDGRWSLHSISFR | 0.107
EEHYEDMHHAMELFIHAVRTGDEHTLSRMLDPNTRIRIDGVHLIGREQAVKWWLELYKKFPNMRLNLKRIDIFDGKLHVDLETNINGVRLDSHLLISKVDGQWRVDSIQHE | 1.5
EEIHKHLKELFVRWMKELVTGNEDSFKDLFDPHTRIHMHIGDKEIHAHGRKHLEDMILRFKGLRVEFRVEDSTAIGDKAHADFHLIIHVDGKNITTREEVRISVIDGKIREVHHHIN | 1.36
EEIIDLMERLAYLWHHWLTTGNEEMLSKFLDPHARIVIGDKIYHGREKIHEELRRHLERFDHIEFRLRHTEVQGNKIHNHGELKLRIGNYTVHYETRFELQIYDGKIHEFQVKID | 1.73
EEKEEIDRREMKRFMKAFETGDEHELKELFDPHARVHVGDKVHIGRHNFLRWFKEWIEKYKNVRIELDDVEYQGEKLHLDLTVEINGRRTTQDLVIYKIDGRWLFKNIHVH | 0.607
EELERDMDHWIELVIKLRKTGDWRQLAEMVDPNVRVDVNGVQIHGRESIEELLKRLGIDNVEVSLRDKDRQGEKMIVDMELHYNGKRHETKYIALKINGKWIFETITIR | 1.38
EELERDSKEVAERLLWDTLTGDEDLLLHLMDPHVRHIVNGVKLHGREALERAIEEHLSHLGIDHIRIRHIDFRIINGKMDVHIHGESIYNGRVVHMIIIFISTKVNGKWVLEELSIEIR | 1.85
EEMERDIKHAVEVMIRFWETGDERLLTELADPDTKSKIDGRTFHGREDIHKLFHSVIEKVKNIRIEFKRISVQGDKAKIDGTNNFNGREIKTDITLWKFDGRWILESIEIG | 1.43
EENREITEKIMRHWLTLFLTGDFERLIELMDPEVKFLIDGRELHGWEVWRKLMTLTIRRYKNIRIHITSIDVFENHTHVETYENVNGVHIDTRLNLFLVNGRIQSIEMDTK | 1.7
EERERLAEELARIWLEVLETGDWKMLHDLADPNVRNVVGDKEQHGREEMSRFYTEWHEHIRIHRIEIESIDIQGNKIQIHGRIDMEINGKRRDQRLEIIIIVINGRIKRLEVRLH | 0.948
EERKESIRLAVEMIEHVFKTGNPEDEMSLFDPHAKLDVGDKHFHGREEYSRWSEEVRRRYGADHIEFRIEDVHSQGDFVDIHGKEVYIYNGVTFVIDVHFHVLKVNGRWLIKHIRIN | 1.3
EERNKFAEDFSRIDTESHRTGDEHSLLRLFDPHARIHQGDFEMHGWEEFSRIMRHEIERYKNATFEVRVDRVDVQGDKMISDGRLHIHQGDKIREYRIFIIVTKVNGQWHIEEVHIV | 1.11
EESEKSAEDATRLIIHMLETGDERLMKHLMDPDVRIEIGEYISIGRENVEELFREWRSKLGIKHIEVKRVRIEVQGNKVHIEMDTRLIVGDKEEETILRVDVVKINGRWYIKSMRLEIR | 1.95
EESEKSAKLLLDWLFRHLITGNEETFQHFADPNARVDQGEKDSHGMEWVRLVLEEIRIDNMHVRDFRIFEGRLIIDTEIRIKYNGVEMTIKVTVVSEKVNGKWRMKSMHVN | 1.04
EETREASRIALEIFIRDLVTGNEDSLERLADPDTKFIINGRNYHGMEFLREEIRKWLERFKNIRVEVKVHHQRVFENHIEMDGRLDFNYDGQKEILEVRLFMVKFNGKWYIHSIEIR | 2.24
EEVEEEVERATRRHVVDLLTGNWDKLIHEMDPNTYLLINGVKFHGREVYEILLREFIRKYKNARYHITVRDYHVQGDKAIIDMEIRIRIGDKEHHIDSELILRKVDGKWFMQEERII | 2.65
EEWEKAIKFAVKLYKEIMETGDEDMQSHLFDPNVRISVGNKERHGMEEVTKIMTEWRLDDHHVNHVELQGNKVSSDGEINGTFDGRRHRVRIVLIILKVNGVWRIEEVRVI | 0.162
EEWRDHVHHLLELMLHLWRTGDEEIFHRLLDPDTLVRVNGVEFHGRDAMHHVLHRLIEELGINHYRESDFDIQGNKAFHHGELRVNGKTVLEEQRYVIFNGKIKEIRITLH | 0.271
EHEDELKHFIHELWKYASDTGDFRTELLLLDPNAKVQVGDKEYHGREWLEFELRRLGVDRIIKEIHIHHEHEQGDKLEIRGELHLLFNGKRIVIDVKLFFLKIDGKWFNRHIIIK | 1.75

Sequence | protease stability score
EHEEEHTRHFMHFFIEMVETGDETALHKLLDPNAKYIQGDKHLVGRELMVEWMEELVRRFKNIRVHITEIERQGDKARVDEKWDINGKKIKTELIITKIDGQWRIHEIRVK | 1.23
EHLIEELREMTERIVETILTGDEKHLADLADPNTRSHTHIGDKHYRFHGMDLIYELLHQVKNMRLHLRHTDASFVGNKVYVRLHIDLIFNGRDIHFTIHIIIDKYNGKWFIHHIELIFN | 1.31
ETEEQYAEELARLYIEIWETGDEETLHKLADPDVRNDVDGKQLHGRESMIEFWRKLGISNVHFILHRLHVKTQGDFIDIHIDGQLDINGKVTRVEHRLHVEKYNGRWLLKEIYIKRD | 1.72
GDEEHHATEALERLIHSFETGDEELMTKLVDPHVRFEVNGKLFIGREDVMRWLKERLDRFDHHRVDFKHIRVVGDKVDIHLVLEVDFNGQHFSHDVRVRIIKINGRWRLTHMSIH | 2.3
GDLEHMLESMARLWTHEVLTGDEDTLRRLADPNVRFESHVNGQRVEFHGMEEVAEWMRKHLEEIRSRIELRTIEPQGNKAHVDGTTHLHYNGRTVIKKTHVHLSIVDGKIQRVELELR | -0.051
GDSEKDAERAIDIFLDTVRTGDERLIHELLDPTTILQVGDKQFHGREEADKWWHELLRKLGHTNIEMEVRDMKVQGDKVHLDTELRFNGRSTRIHVVIIKVNGRWLIEHIEIK | 1.23
GEDEHLAKRLLDLLIELFHTGDWDFISMLADPHVKLNVNGVQYHGRHDVTKLVHDEAEELRVHIQIHKVDWVGDKVHVDTRLVVNIDGQEHRTKTHIDMIVVNGRLNSMRIEIR | 1.19
GEDKELARKAVEEELESLLTGDEDRLKELIDPHTKVFINGREEIGMEALEDVLKKLGFKHIKVHHFDIRVQGDKVKNDLRGIFHVNGKDIDTQLIIISLKYNGQWFNHSLEWRTR | 0.595
GEEDEEFSKLMDETVKSLQTGDETHLKKLLDPNVILHVGDKEFHGRERAIDWYRHLRIHDMTIHHWEIQGDKAHVDGKLHVEVDGQHYDAKLHIVLEKINGQWYITSIHYK | 2.06
GEEHELTERAIEHFVDIWKTGDEDSLEENIDPHARIDFNGQQLHGREEMYRFMHKVNRQIKGIRLSFKYIDLRIYGDKVIVHNDGVVRVGDKVHDEQTKLEMRKVDGRWLFKSVTVFVL | 1.05
GEEQEDIKKFLEDDMEAWSTGDFRQLKRNMDPHVRIVINGRHLHGMETFEHFFEHLRVRITSLELKRVEAVGDKVSYDGELDFELDYNGRRLSQRTRVEFRIEKINGRWILHYVIFR | 0.329
GEHEDYILHIVDLFIHNILTGDWDAILKLMDPDVRFEIEINGRTIEIHGWEQIKRIMDEIKERADHLHIEIRDKFSVNGVAFFEGTIEIRVGDKRHREDVEIILFVVDGRIKIIRKRDV | 1.99
GEKEELSRLALHLWFRDYHTGDEDSAHRLLDPNVRLHVGDKHFVGRERFTRFWHEVYRELRIDDYILHSEDIQGDKIHMDGRIDGVVGDKREDFRTEIHLIWIDGKLHSEKRDKE | 0.902
GELEKLATTIVRLWVRHWYTGDEESSMRLMDPNARIIINGKEMHGRELYVHFLRRVLEHIRPESVDIEEVKIQGDYAHIDITEHRRIGDKEVTFRTEVSIIVINGKVTEVHMEIR | 1.7
GEMEKLLFKIFEEWMKLRKTGDEDVIAHLADPDYRWDVNGVDLHGMEHVKEFTEEFLRHLGFDHQEYRIRRFDHDGNKLRADTEVRIVVNGVDITHRTHIIIVQFNGKVKSVKERIR | 0.292
GENEQLIEEAVKMFMDIHHTGDWRDVHHLLDPHMRLDVNGVDYHGRDLWVRIAKEISEHARTEVRIRHLEIQGDKVIVHGQIILRIGDKTHVIDTRHIIIKINGRWKLHSVDIH | 1.32
HDDEEIIKREIDFFLEVLLTGDWRHLNELLDPHARLEIGDKRFHGREAVIKEIRTFIERFGVDHSEIDTVNIQGEKAEYKFTLKVGDKRHELHITMTKINGRWYITEVKFS | 1.79
HDDHESADKFIREEIEYQRTGDWHRFEELLDPDVRLEQGNYHAHGREEVSTIFLMHLTRVKNMRMEVTRMEIINGRLSLHLKLDFNGREFHFSTIVQKVNGKWIIKAEHFI | 0.507
HDDQKESHEWAKLFEDWLQTGDEESILKQLDPHVRIEIGDKRNHGREELHRYEHEFWTKFGIDHIHIDDIRVQGEKVHLETTVIVNGRKFQQIIIVVFIDGVMQRLVIEDR | 0.798
HDEDEESRNAVEEYWRVLHTGDEKRWHELADPNVRNEIDGRTYHGRESFRFLFHLHEEKFKNVKIELHSVNIQGDKIKMLIEIKYGDKNIHMIIIAQKIDGKWKNERIHVFHH | 0.744
HDEEKHDREYVEEMLEVWLTGDFDRIMHLFDPNARQEVNGVDIVGRERLHEFNRRWEEDMGFDHSHTHHVEVVNGRVHSDTRVHFNGREMETHLDLRVVNGRIKSIRVSYN | 0.094
HDEERDSKIASSIMVETWKTGNEHLMERMFDPHTRSHVGDKEIHGMEEFIRWLYELLRKIKNARFTVEDTDLINGVVVVITRLHVGDKDFLLTFFVEKFNGRWHLRSFEMK | 0.772
HDEERELTIVSERIIKIFETGDWEELHKMADPRVKVIVNGRETHGMERYVKHLEQIRTILTNIHLHDVDLQGDFLHIDLEARGRILVNGRDTTFNWELKITIDKFDGRWRMKRINVN | 2.16
HDEEREVHEWIKLIEHHLRTGDEDAVRKLVDPTVRNDINGVDVVGRREDVERLHQADHIDIELKHVEIQGDKLHIDGVLILDFNGRHFYFRMKIIASKYNGVWKIKEKRVH | 0.999
HDHDKHLDRLEELMLRWWKTGDWDKILKYADPHTRSDVNGKEYHGRESMVRAFEHVLKMLGIDVVYDQSHHLQGEKAKFHQESRVGDKRVEVIIIITIVDGRVTEFEVEVHHN | 0.722
